Patent US20140213531A1 (POLYPHOR, published 2014)

T1: CathepsinG, from human neutrophils (human, UniProt P08311 21-244)
T1 construct: purified natural enzyme, bought
T1 sequence (looked up): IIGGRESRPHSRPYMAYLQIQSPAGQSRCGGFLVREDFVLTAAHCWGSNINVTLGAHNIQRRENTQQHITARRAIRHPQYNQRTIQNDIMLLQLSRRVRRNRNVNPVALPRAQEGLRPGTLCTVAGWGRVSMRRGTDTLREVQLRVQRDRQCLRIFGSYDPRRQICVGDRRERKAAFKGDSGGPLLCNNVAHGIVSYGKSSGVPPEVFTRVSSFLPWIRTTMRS

T2: Chymase, from human skin (human, UniProt P23946 22-247)
T2 construct: purified natural enzyme, bought
T2 sequence (looked up): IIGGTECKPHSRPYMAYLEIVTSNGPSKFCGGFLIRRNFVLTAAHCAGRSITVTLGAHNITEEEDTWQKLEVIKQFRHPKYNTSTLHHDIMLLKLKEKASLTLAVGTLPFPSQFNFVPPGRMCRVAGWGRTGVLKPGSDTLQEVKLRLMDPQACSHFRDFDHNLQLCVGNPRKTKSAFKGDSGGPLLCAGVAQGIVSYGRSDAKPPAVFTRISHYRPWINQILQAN


How the values were obtained:
Experiment in all cases: enzyme inhibition, pNA substrate
[1] = target: T1, CathepsinG, from human neutrophils
[2] = target: T3, Chymotrypsin, from human pancreas (human, UniProt P17538 19-263)
T3 construct: purified natural enzyme, bought

Chymase, from human skin = target: T2, Chymase, from human skin
[3] = target: Thrombin, from Human Plasma, high activity (human, UniProt P00734 328-622)
[4] = target: T4, Coagulation Factor Xa, from uman plasma (human, UniProt P00742 41-179; P00742 235-488, limits assumed)
T4 construct: purified natural enzyme, bought; also called FXa

[5] = target: T5, Urokinase from human urine (human, UniProt P00749 21-431, limits assumed)
T5 construct: purified natural enzyme, bought

[6] = target: T6, Trypsin, Iodination grade, from human pancreas (human, UniProt P07477 24-247)
T6 construct: purified natural enzyme, bought

[7] = target: T7, Tryptase, from human lung (human, UniProt Q15661 31-275, limits assumed)
T7 construct: purified natural enzyme, bought
T7 sequence (Q15661 31-275 limits assumed): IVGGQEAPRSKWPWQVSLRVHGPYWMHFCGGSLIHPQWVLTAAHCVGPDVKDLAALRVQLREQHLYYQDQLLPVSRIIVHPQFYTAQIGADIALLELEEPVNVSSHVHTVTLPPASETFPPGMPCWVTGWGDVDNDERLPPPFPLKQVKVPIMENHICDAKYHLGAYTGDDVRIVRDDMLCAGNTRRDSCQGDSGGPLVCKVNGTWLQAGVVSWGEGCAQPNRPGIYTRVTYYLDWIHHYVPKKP

T3 sequence (P17538 19-263): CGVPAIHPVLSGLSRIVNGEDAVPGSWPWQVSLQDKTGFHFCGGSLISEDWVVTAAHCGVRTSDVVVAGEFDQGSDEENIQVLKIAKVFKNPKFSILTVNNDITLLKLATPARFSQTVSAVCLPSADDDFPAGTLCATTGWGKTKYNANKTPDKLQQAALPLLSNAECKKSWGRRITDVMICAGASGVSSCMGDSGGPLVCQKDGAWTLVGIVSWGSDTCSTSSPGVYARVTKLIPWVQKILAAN
T4 sequence (P00742 41-179 limits assumed, chain 1 of 2): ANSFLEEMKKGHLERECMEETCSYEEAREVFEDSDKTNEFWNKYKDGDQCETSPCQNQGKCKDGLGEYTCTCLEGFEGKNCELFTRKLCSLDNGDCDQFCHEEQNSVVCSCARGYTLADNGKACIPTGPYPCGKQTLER
T4 sequence (P00742 235-488 limits assumed, chain 2 of 2): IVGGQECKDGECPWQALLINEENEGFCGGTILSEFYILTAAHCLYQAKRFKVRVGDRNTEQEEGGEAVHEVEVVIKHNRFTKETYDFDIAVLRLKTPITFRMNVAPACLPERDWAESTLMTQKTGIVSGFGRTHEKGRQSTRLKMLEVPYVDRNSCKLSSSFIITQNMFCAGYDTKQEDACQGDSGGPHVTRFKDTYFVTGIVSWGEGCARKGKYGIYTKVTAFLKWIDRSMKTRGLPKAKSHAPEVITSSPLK

% inhibition at 100 µM [1] [%]	% inhibition at 100 µM [2] [%]	% inhibition at 100 µM (Chymase, from human skin) [%]	% inhibition at 100 µM [3] [%]	% inhibition at 100 µM [4] [%]	% inhibition at 100 µM [5] [%]	% inhibition at 100 µM [6] [%]	% inhibition at 100 µM [7] [%]	Binder
56	84	0	16	11	16			XCTASXPPQCQ (HELM PEPTIDE1{[O=C([C@H](CCc1ccccc1)N[*:1])[*:2]].C.T.A.S.[CCCCCCCC[C@H](N[*:1])C(=O)[*:2]].P.P.Q.C.Q.[dP].P}$PEPTIDE1,PEPTIDE1,2:R3-10:R3|PEPTIDE1,PEPTIDE1,1:R1-13:R2$$$V2.0; SMILES CCCCCCCC[C@@H]1NC(=O)[C@H](CO)NC(=O)[C@H](C)NC(=O)[C@H]([C@@H](C)O)NC(=O)[C@@H]2CSSC[C@H](NC(=O)[C@H](CCC(N)=O)NC(=O)[C@@H]3CCCN3C(=O)[C@@H]3CCCN3C1=O)C(=O)N[C@@H](CCC(N)=O)C(=O)N1CCC[C@@H]1C(=O)N1CCC[C@H]1C(=O)N[C@@H](CCc1ccccc1)C(=O)N2) [Example 153]
52	83		19		12	18	30	XCTASXPPQCF (HELM PEPTIDE1{[O=C([C@H](CCc1ccccc1)N[*:1])[*:2]].C.T.A.S.[Cha].P.P.Q.C.F.[dP].P}$PEPTIDE1,PEPTIDE1,2:R3-10:R3|PEPTIDE1,PEPTIDE1,1:R1-13:R2$$$V2.0; SMILES C[C@@H]1NC(=O)[C@H]([C@@H](C)O)NC(=O)[C@@H]2CSSC[C@H](NC(=O)[C@H](CCC(N)=O)NC(=O)[C@@H]3CCCN3C(=O)[C@@H]3CCCN3C(=O)[C@H](CC3CCCCC3)NC(=O)[C@H](CO)NC1=O)C(=O)N[C@@H](Cc1ccccc1)C(=O)N1CCC[C@@H]1C(=O)N1CCC[C@H]1C(=O)N[C@@H](CCc1ccccc1)C(=O)N2, also called Ex. 155) [Example 155]
